Measurements taken from US20180057604A1 (Genentech, published 2018).

Target: His-tagged BACE1 protein (Example 15) (Homo sapiens (Human), UniProt P56817 22-457)
Assay: SPR (Biacore T200), Fab on captured His-BACE1;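 further: Single-cycle kinetics with serially diluted Fab flowed over BACE1 captured by anti-His antibody on a CM5 chip, rates fitted to a one-to-one Langmuir model, Kd derived as koff over kon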
Method: The binding affinity of anti-BACE1 Fab antibodies by single-cycle kinetics was determined using surface plasmon resonance (SRP) measurement with a BIAcore™ T200 instrument. Briefly, series S sensor chip CM5 was activated with EDC and NHS reagents according to the supplier's instructions, and anti-His antibody was coupled to achieve approximately 1000 response units (RU), then following by blocking un-reacted groups with 1M ethanolamine. For kinetics measurements, His-tagged BACE1 protein was first injected at 10 μl/min flow rate to capture approximately 100 RU at 3 different flow cells (FC), except for FC1 (reference), and then 5-fold serial dilutions of Fab in HBS-P buffer (0.01M HEPES pH 7.4, 0.15M NaCl, 0.005% surfactant P20) from low (0.08 nM) to high (50 nM) were injected (flow rate: 30 μl/min) one after the other in the same cycle with no regeneration between injections. The sensorgram was recorded and subject to reference and buffer subtraction before evaluating by BIAcore™ T200 Evaluation Software (version 2.0). Association rates (kon) and dissociation rates (koff) were calculated using a simple one-to-one Langmuir binding model. The equilibrium dissociation constant (Kd) was calculated as the ratio koff/kon.

Sequence of His-tagged BACE1 protein (Example 15) (P56817 22-457 limits assumed): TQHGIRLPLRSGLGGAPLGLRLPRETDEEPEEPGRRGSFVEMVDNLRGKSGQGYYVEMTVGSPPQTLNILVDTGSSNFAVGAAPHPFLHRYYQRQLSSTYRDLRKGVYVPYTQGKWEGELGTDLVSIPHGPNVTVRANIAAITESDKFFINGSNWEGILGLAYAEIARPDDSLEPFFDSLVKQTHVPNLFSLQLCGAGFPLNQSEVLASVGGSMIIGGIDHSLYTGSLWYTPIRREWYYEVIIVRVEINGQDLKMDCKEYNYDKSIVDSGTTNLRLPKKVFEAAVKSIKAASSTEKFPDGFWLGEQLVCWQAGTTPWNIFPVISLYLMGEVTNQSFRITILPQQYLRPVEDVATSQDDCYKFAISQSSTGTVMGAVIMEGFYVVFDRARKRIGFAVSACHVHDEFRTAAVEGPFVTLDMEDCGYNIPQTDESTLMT

Row | Binder | Kd | koff | kon
1 | 6266wt (Fab, V domains shown, also called ADI6266) VH: QVQLVQSGAEVKKPGSSVKVSCKASGGTLSGYGVSWVRQAPGQGLEWMGNIIPGFGTANYAQKFQGRVTITADESTSTAYMELSSLRSEDTAVYYCARSGGTKYGMLDVWGQGTMVTVSS VL: EIVMTQSPATLSVSPGERATLSCRASQSVSSNLAWYQQKPGQAPRLLIYGASTRATGIPARFSGSGSGTEFTLTISSLQSEDFAVYYCQQLILWPPRTFGGGTKVEIK | 1.09 nM | 0.000403 s⁻¹ | 371000 M⁻¹ s⁻¹
2 | 6266.1 Fab (Fab, V domains shown, not tied singly) VH: QVQLVQSGAEVKKPGSSVKVSCKASGGTLSHYGVSWVRQAPGQGLEWMGNIIPGIGTANYAQKFQGRVTITADESTSTAYMELSSLRSEDTAVYYCARSGGTKYGMLDVWGQGTMVTVSS VL: EIVMTQSPATLSVSPGERATLSCRASQSVSSNLAWYQQKPGQAPRLLIYGASTRATGIPARFSGSGSGTEFTLTISSLQSEDFAVYYCQQLILWPPRTFGGGTKVEIK | 0.24 nM | 0.000161 s⁻¹ | 654000 M⁻¹ s⁻¹
3 | 6266.2 Fab (Fab, V domains shown) VH: QVQLVQSGAEVKKPGSSVKVSCKASGGTLSHYGVSWVRQAPGQGLEWMGNIIPGIGTANYAQKFQGRVTITADESTSTAYMELSSLRSEDTAVYYCARSGGTKYGMLDVWGQGTMVTVSS VL: EIVMTQSPATLSVSPGERATLSCRASQSVSSNLAWYQQKPGQAPRLLIYGASKRATGIPARFSGSGSGTEFTLTISSLQSEDAAVYYCQQLILWPPRTFGGGTKVEIK | 0.58 nM | 0.000142 s⁻¹ | 245000 M⁻¹ s⁻¹
4 | 6266.3 Fab (Fab, V domains shown) VH: QVQLVQSGAEVKKPGSSVKVSCKASGGTLSHYGVSWVRQAPGQGLEWMGNIIPGIGTANYAQKFQGRVTITADESTSTAYMELSSLRSEDTAVYYCARSGGTKYGMLDVWGQGTMVTVSS VL: EIVMTQSPATLSVSPGERATLSCRASQSVSSNLAWYQQKPGQAPRLLIYGASTRAYGIPARFSGSGSGTEFTLTISSLQSEDFAVYYCQQLILWPPRTFGGGTKVEIK | 0.29 nM | 0.000142 s⁻¹ | 480000 M⁻¹ s⁻¹
5 | 6266.4 Fab (Fab, V domains shown) VH: QVQLVQSGAEVKKPGSSVKVSCKASGGTLSHYGVSWVRQAPGQGLEWMGNIIPGIGTANYAQKFQGRVTITADESTSTAYMELSSLRSEDTAVYYCARSGGTKYGMLDVWGQGTMVTVSS VL: EIVMTQSPATLSVSPGERATLSCRASQSVSSNLAWYQQKPGQAPRLLIYGASKRATGIPARFSGSGSGTEFTLTISSLQSEDFAVYYCQQLILWPPRTFGGGTKVEIK | 0.26 nM | 0.00017 s⁻¹ | 638000 M⁻¹ s⁻¹
6 | 6266.5 Fab (Fab, V domains shown) VH: QVQLVQSGAEVKKPGSSVKVSCKASGGTLSHYGVSWVRQAPGQGLEWMGNIIPGIGTANYAQKFQGRVTITADESTSTAYMELSSLRSEDTAVYYCARSGGTQYGMLDVWGQGTMVTVSS VL: EIVMTQSPATLSVSPGERATLSCRASQSVSSNLAWYQQKPGQAPRLLIYGASKRATGIPARFSGSGSGTEFTLTISSLQSEDAAVYYCQQLILWPPRTFGGGTKVEIK | 0.53 nM | 0.000228 s⁻¹ | 428000 M⁻¹ s⁻¹
7 | 6266.6 Fab (Fab, V domains shown) VH: QVQLVQSGAEVKKPGSSVKVSCKASGGTLSHYGVSWVRQAPGQGLEWMGNIIPGIGTANYAQKFQGRVTITADESTSTAYMELSSLRSEDTAVYYCARSGGTQYGMLDVWGQGTMVTVSS VL: EIVMTQSPATLSVSPGERATLSCRASQSVSSNLAWYQQKPGQAPRLLIYGASTRAYGIPARFSGSGSGTEFTLTISSLQSEDAAVYYCQQLILWPPRTFGGGTKVEIK | 0.78 nM | 0.000278 s⁻¹ | 356000 M⁻¹ s⁻¹
8 | 6266.7 Fab (Fab, V domains shown) VH: QVQLVQSGAEVKKPGSSVKVSCKASGGTLSHYGVSWVRQAPGQGLEWMGNIIPGIGTANYAQKFQGRVTITADESTSTAYMELSSLRSEDTAVYYCARSGGTKYGELDVWGQGTMVTVSS VL: EIVMTQSPATLSVSPGERATLSCRASQSVSSNLAWYQQKPGQAPRLLIYGASTRAYGIPARFSGSGSGTEFTLTISSLQSEDAAVYYCQQLILWPPRTFGGGTKVEIK | 0.62 nM | 0.000333 s⁻¹ | 542000 M⁻¹ s⁻¹
9 | 6266.8 Fab (Fab, V domains shown, not tied singly) VH: QVQLVQSGAEVKKPGSSVKVSCKASGGTLKGYGVSWVRQAPGQGLEWMGNIIPGFGTANYAQKFQGRVTITADESTSTAYMELSSLRSEDTAVYYCARGGGTKYGMLDVWGQGTMVTVSS VL: EIVMTQSPATLSVSPGERATLSCRASQSVSSNLAWYQQKPGQAPRLLIYGASTRAYGIPARFSGSGSGTEFTLTISSLQSEDFAVYYCQQLILWPPRTFGGGTKVEIK | 0.56 nM | 0.000275 s⁻¹ | 488000 M⁻¹ s⁻¹
10 | 6266.9 Fab (Fab, V domains shown) VH: QVQLVQSGAEVKKPGSSVKVSCKASGGTLKGYGVSWVRQAPGQGLEWMGNIIPGFGTANYAQKFQGRVTITADESTSTAYMELSSLRSEDTAVYYCARGGGTKYGMLDVWGQGTMVTVSS VL: EIVMTQSPATLSVSPGERATLSCRASQSVSSNLAWYQQKPGQAPRLLIYGASKRATGIPARFSGSGSGTEFTLTISSLQSEDFAVYYCQQLILWPPRTFGGGTKVEIK | 0.68 nM | 0.000305 s⁻¹ | 445000 M⁻¹ s⁻¹
11 | 6266.10 Fab (Fab, V domains shown) VH: QVQLVQSGAEVKKPGSSVKVSCKASGGTLSGYGVSWVRQAPGQGLEWMGNIIPGFGTANYAQKFQGRVTITADESTSTAYMELSSLRSEDTAVYYCARSGGTKYGMLDVWGQGTMVTVSS VL: EIVMTQSPATLSVSPGERATLSCRASQSVSSNLAWYQQKPGQAPRLLIYGASKRATGIPARFSGSGSGTEFTLTISSLQSEDFAVYYCQQLILWPPRTFGGGTKVEIK | 0.69 nM | 0.000506 s⁻¹ | 756000 M⁻¹ s⁻¹
12 | 6266.11 Fab (Fab, V domains shown) VH: QVQLVQSGAEVKKPGSSVKVSCKASGGTLSGYGVSWVRQAPGQGLEWMGNIIPGFGTANYAQKFQGRVTITADESTSTAYMELSSLRSEDTAVYYCARSGGTKYGMLDVWGQGTMVTVSS VL: EIVMTQSPATLSVSPGERATLSCRASQSVSSNLAWYQQKPGQAPRLLIYGASTRAYGIPARFSGSGSGTEFTLTISSLQSEDFAVYYCQQLILWPPRTFGGGTKVEIK | 0.46 nM | 0.00041 s⁻¹ | 891000 M⁻¹ s⁻¹
13 | 6266.12 Fab (Fab, V domains shown) VH: QVQLVQSGAEVKKPGSSVKVSCKASGGTLNGYGVSWVRQAPGQGLEWMGNIIPGFGTANYAQKFQGRVTITADESTSTAYMELSSLRSEDTAVYYCARSGGTKYGMLDVWGQGTMVTVSS VL: EIVMTQSPATLSVSPGERATLSCRASQSVSSNLAWYQQKPGQAPRLLIYGASTRATGIPARFSGSGSGTEFTLTISSLQSEDFAVYYCQQLILWPPRTFGGGTKVEIK | 0.52 nM | 0.000447 s⁻¹ | 854000 M⁻¹ s⁻¹
14 | 6266.13 Fab (Fab, V domains shown) VH: QVQLVQSGAEVKKPGSSVKVSCKASGGTLSGYGMSWVRQAPGQGLEWMGNIIPGFGTANYAQKFQGRVTITADESTSTAYMELSSLRSEDTAVYYCARSGGTKYGMLDVWGQGTMVTVSS VL: EIVMTQSPATLSVSPGERATLSCRASQSVSSNLAWYQQKPGQAPRLLIYGASTRATGIPARFSGSGSGTEFTLTISSLQSEDFAVYYCQQLILWPPRTFGGGTKVEIK | 0.56 nM | 0.000411 s⁻¹ | 734000 M⁻¹ s⁻¹
